Measurements published in patent US20250355001A1, “METHOD FOR DETECTING A TAU PROTEIN FRAGMENT IN A SAMPLE” (GTINVENT LIMITED, priority 2022, published 2025).

Test system: hT40, dGA, dGAE and truncated tau fragments
Test: Binding ELISA / epitope mapping of anti-tau scAbs with truncated tau proteins and 13mer peptides
Set-up: species or system human
Conditions: for Tau proteins/fragments with positive scAb reactivity: binding ELISA; for Epitope: residue numbers of SEQ ID NO: 1 (hT40), CDR Tables 1-11; for Shortest region bound on hT40: incl. 13mer peptides
Method: A series of binding ELISA was performed using various truncated versions of the tau protein and 13mer peptide libraries spanning the entire hT40 molecule for mapping the epitopes of anti-tau scAbs (Full list of protein antigens used is given in Table 14). In general, ELISA plates were coated with 1 μg/ml hT40 or dGA or dGAE or other truncated versions of the protein and in the case of biotinylated peptides, plates were coated with 5 μg/ml Streptavidin followed by 1 μg/ml biotinylated peptide. The plates were blocked with 2% MPBS and scAb samples added at desired starting concentrations and double diluted across the plate. Binding was detected using anti-Human C Kappa HRP conjugated secondary antibody and the resulting immunoreaction was developed and absorbance values measured as described above.
Selected E specific scAbs and their specific binding to dGAE is shown below (FIG. 8A-E).
Similarly, dGA binding ‘NS’, ‘S’ and ‘M’ group scAbs were subjected to further antigen binding ELISA using shorter tau proteins and biotinylated 13mer peptides as shown below (FIG. 10A-F) and (FIG. 11A-R).

[1] = Table 15, residue numbers of hT40

B1: E2A6: dGAE (391E) specific clone, Table 9; SEQ ID NO: 252 (protein)
scFv: QVQLQESGPSLVKPSQTLSLTCTVSGFSLTDWGVAWVRQAPGKALEWLGTMRSGGTTDDNPALKSRLSITRDTSKSQVSLSLSSVTTEDMAMYYCARGYLSGVHYAWGRGLLVTVSSEGKSSGASGESKVDDRVVRTQPSSVSKSLGQSVSITCSGSSSNVGAGNYVGWFQQVPGSAPKLLIYGATNRASGVPARFSGSKSGVTATLTITSLQAEDEADYYCASIDTSRSHIFGSGTRLTVLG
modifications: E2A6 amino acid sequence
For B1, the “Tau proteins/fragments with positive scAb reactivity” value (“Tau proteins/fragments” below) [1] was 297-391 (dGAE).

B2: 412G11: C-terminal anti-tau clone, Table 5; SEQ ID NO: 434 (protein)
chain: QVRLQESGPSLVKPSQTLSLTCTVSGFSLTSYALGWVRQAPGRAPEWIGNIWRGGRIEYNPALKSRLSITRDTSKSQVSLSLSSVTTEDTAVYYCSRSGGDWGPGLLVTVSSEGKSSGASGESKVDDQAVLTQPSSVSGSLGQRVSITCSGSSSNVGYGNYVGWYQQVPGSAPKLLIYGATSRASGVPDRFSGSRSENTATLTISSLQAEDEADYYCASYDRSESVVFGSGTRLTVLG
modifications: 412G11 amino acid sequence
B2 was tested, and the Epitope was 412-441.

B3: 412B9: C-terminal anti-tau clone, Table 5; SEQ ID NO: 417 (protein)
chain: QVQLQESGPSLVKPSQTLSLTCTVSGFSVISDSVAWVRQAPGKVPEWLGASGSSGNKYYNPALKSRLSITRDTSKSQVSLSLSSVTTEDTAVYYCARGIIAGVDVWGRGLLVSVSSEGKSSGASGESKVDDQAVLTQPSSVSGALGQRVSITCSGSSSNVGYGDYVGWYQQVPGSAPKLLIYGAASRASGVPDRFSGSRSGNTATLTISSLQAEDEADYYCASYDSSDGGVFGSGTRLTVLG
modifications: 412B9 amino acid sequence
In the case of B3, the Epitope is reported as 412-441.

B4: CA7: anti-tau clone, Table 10; VH SEQ ID NO: 503, VL 504 (antibody, V domains shown)
VH: RVRLQGSGPSLVKPSQTLSLTCTVSGFSFDSYYVGWVRQAPGKALEWLGNIYSTGRAFYNPALKSRLSITRDTSKSQVSLSVSSVTIEDTALYYCVRGSYYHGGGNGMVDFFDYWSPGLLVTVSS
VL: QVVRTQPSSVSGSLGQRVSITCSGSSSNVGYGNYVGWFQQVPGSAPKLLIYAATSRASGVPDRFSGSRSGNTATLTIDSLQAEDEADYYCSSYQRGNTGVFGSGTRLTVLG
modifications: CA7 VH Domain; CA7 VL Domain
With B4 the “Tau proteins/fragments” value (Table 17, 'C' group scAbs) was “hT40, 1-319”, the “Shortest region bound on hT40” value (Table 17, 'C' group scAbs) was 1-319 and the Epitope was 1-319.

B5: S1D9: anti-tau clone, Table 2; SEQ ID NO: 413 (protein)
scFv: QVQLQESGPSLVKPSQTLSLTCTVSGFSLTSNSVGWVRQAPGKAPEWVAGIDSDGEEGYNPALNSRLSITRDTSKNQVSLSLSRVTSEDTAVYYCGRTYRTDGYAYGYVQAIDYWGPGLLVTVSSEGKSSGASGESKVDDRVMLTQPPSVSGSPGQTVSITCSGSFIGISSVGWFQQLPGSGLRTVIFASDGRPSGVPDRFSNSKSGNTATLTISSLQAEDEADYFCGSSDRTQYTGVFGSGTRLTVLS
modifications: S1D9 amino acid sequence
In the case of B5, the “Tau proteins/fragments” value (Table 16, NS, S and M clones) is reported as “hT40, 297-390 (dGA), 297-391 (dGAE)”, the “Shortest region bound on hT40” value (Table 16, NS, S and M clones) is reported as 367-379 and the Epitope is reported as 367-379.

B6: S2C6: anti-tau clone, Table 2; SEQ ID NO: 416 (protein)
scFv: QVQLQESGPSLVKPSQTLSLTCTVSGFSLISNSVGWVRQAPGKAPEWVAGIDTDGEEGYNPALKSQYAASDPDTSKSQVSLSLSSVTSEDTAVYYCGRTYRTDGFAYGYVQAIDYWGPGLLLTISSEGKSSGASGESKVDDQAVLTQPSSVSGSLGQRVSITCSGSFIGISSVGWFQQLPGSGLRTIIVASDGRPSGVPDRFSMSKSGNTATLTISSLQAEDEADYFCGSSDRTQYTGVFGSGTRLTVLG
modifications: S2C6 amino acid sequence
In the case of B6, the “Tau proteins/fragments” value (Table 16, NS, S and M clones) is reported as “hT40, 297-390 (dGA), 297-391 (dGAE), 369-390, 369-391”, the “Shortest region bound on hT40” value (Table 16, NS, S and M clones) is reported as 367-379 and the Epitope is reported as 367-379.

B7: 412E6: C-terminal anti-tau clone, Table 5; sequence in b349 (protein)
scAb: QVQLQESGPSLVKPSETLSLTCTVSGFSLTNYGVGWVRQAPGKALEWLGNIYSGGSTYYNPALKSRLSITRDTSKSQVSLSLNSVTLEDTAVYYCGRGGVGSVDVWGPGLLVTVSSEGKSSGASGESKVDDQAVLTQPPSVSGSPGQRVSITCSGGRNNIGRGTFVDWYQQLPGSGLKTVIYGTDRRPPGVPDRFSGSKTGNAATLTITSLQAEDEADYWCATYDYSNDMIILGSGTRLTVLG
B7 was tested, and the Epitope was 412-441.

B8: S1F4: anti-tau clone, Table 2; SEQ ID NO: 414 (protein)
scFv: QVQLQESGPSLVKPSQTLSLTCTVSGFSLSSNSVGWVRQAPGKAPEWVAGIDTDGEEGYNPALNSRLSITRDTSKSQVSLSLSSVTSEDTAVYYCVRSYRADGLAYGYVQAIDYWGPGLLLTISSEGKSSGASGESKVDDQAVVTQPSSVSGSLGQRVSITCSGSFIGISSVGWFQQLPGSGLRTVIVASDGRPSGVPDRFSNSKSGNTATLTISSLQAEDEADYFCGSSDRTQYTGVFGSGTRLTVLG
modifications: S1F4 amino acid sequence
In the case of B8, the “Tau proteins/fragments” value (Table 16, NS, S and M clones) is reported as “hT40, 297-390 (dGA), 297-391 (dGAE), 369-390, 369-391”, the “Shortest region bound on hT40” value (Table 16, NS, S and M clones) is reported as 367-379 and the Epitope is reported as 367-379.

B9: S1B1: anti-tau clone, Table 2; SEQ ID NO: 412 (protein)
scFv: QVQLQESGPSLVKPSQTLSLTCTVSGFSLSSNSVGWVRQAPGKAPEWVAGIDTDGEEGYNPALNSRLSITRDTSKSQVSLSLSSVTSEDTAVYYCVRSYRTDGLAYGYVQAIDYWGPGLLVTVSSEGKSSGASGESKVDDQAVLTQPSSVSGSLGQRVSITCSGSFIGISSVGWFQQLPGSGLRTVIVASDGRPSGVPDRFSNSKSGNTATLTISSLQAEDEADYFCGSSDRTQYTGVFGSGTRLTVLG
modifications: S1B1 amino acid sequence
With B9 the “Tau proteins/fragments” value (Table 16, NS, S and M clones) was “hT40, 297-390 (dGA), 297-391 (dGAE)”, the “Shortest region bound on hT40” value (Table 16, NS, S and M clones) was 367-379 and the Epitope was 367-379.

B10: ME12: sheep-derived anti-tau clone, CDRs in Table 1 (protein)
CDR 1: SNAVG
CDR 2: GCSSDGKCYHNSALKS
CDR 3: GFYSIYGYDYSGTIDY
CDR 4: SGSSSNVGGGNSVG
CDR 5: NTNSRPS
CDR 6: VTGDSSTHDDL
modifications: VHCDR1 ME12, NS3D9; VHCDR1 S1D2, S1H6, S2C3; VHCDR1 MC5, MD12; VHCDR1 3aA6, VHCDR1 CE3; VHCDR2 ME12; VHCDR3 ME12; VLCDR1 S1D12, ME12; VLCDR2 ME12; VLCDR3 ME12
For B10, the “Tau proteins/fragments” value (Table 16, NS, S and M clones) was “hT40, 297-390 (dGA), 297-391 (dGAE), 341-353, 337-349, 339-351”, the “Shortest region bound on hT40” value (Table 16, NS, S and M clones) was 337-355 and the Epitope was 337-355.

B11: NS1G7: anti-tau clone, Table 10; SEQ ID NO: 374 (protein)
scFv: QVQLQESGPSLVKPSQTLSLTCTVSGFSLTSYGVGWVRQAPGKTLEWISSISSGGTTFYNPALKSRLSITRDTSESQVSLSLSSVTTEDTAVYYCTRDVHIYYNDYGAAYGDRDYWGPGLLVTVSSEGKSSGASGESKVDDQAVVTQPPSVSGSPGQRVSITCSGSSSNIGGGNYVSWYQQLPGSGLRTLIYGTTSRASGVPDRFSGSGSGNTATLTISSLQAEDEADYYCASYDTNSGSVFGSGTRLTVLG
modifications: NS1G7 amino acid sequence
For B11, the “Tau proteins/fragments” value (Table 16, NS, S and M clones) was “hT40, 297-390 (dGA), 297-391 (dGAE), 275-305, 337-368”.

B12: 412E10: C-terminal anti-tau clone, Table 5; SEQ ID NO: 147 (protein)
chain: QVQLQESGPSLVKPSQTLSLTCTVSGFSVISDSVAWVRQAPGKVPEWLGASGSSGNKYYNPALKSRLSITRDTSKSQVSLSLSSVTTEDTAVYYCARGIIAGVDVWGRGLLVTVSSEGKSSGASGESKVDDQAVLTQPSSVSGSLGQRVSITCSGSSSNVGYGNYVGWYQQVPGSAPKLLIYGTAIRASGVPDRFSGSRSGDTATLTITSLQAEDEADYYCASYQSNYAFFGSGTRLTVLG
modifications: 412E10 amino acid sequence
In the case of B12, the “Detection scAb (Epitope)” value (Table 28 (LoD table), residues of hT40) is reported as 412E10 (412-441) and the Epitope is reported as 412-441.

B13: E2B7: dGAE (391E) specific clone, Table 9; SEQ ID NO: 254 (protein)
scFv: QVQLQESGPSLVKPSQTLSLTCTVSGFSLTSWGVAWVRQAPGKALEWLGTMRSGGGTEYNPALKSRLSITRDTSKSQVSLSLSSVTTEDMAMYYCARGYLSGIHYAWGRGLLVSVSSEGKSSGASGESKVDDQAVLTQLSSVSGSLGQRVSITCSGSSSNVGDGDYVGWFQQLPGSAPKLLIYSARNRASGVPDRFSGSRSGNTATLTITSLQAEDEADYYCASIDTSRSHIFGSGTRLTVLG
modifications: E2B7 amino acid sequence
With B13 the “cross-reactivity using hT40, dGA and dGAE antigens” value (ELISA, 'E' group scAbs) was “specific dGAE binding” and the “Tau proteins/fragments” value [1] was 297-391 (dGAE).
